From US20100017897A1 (CHILDREN S HOSPITAL OF PHILADELPHIA, published 2010)

T1: cytosolic domain of human PRRG4 (human, UniProt Q9BZD6 139-226)
T1 construct: Expressed in insect cells; also called cytosolic hPPRG4; cystosolic domain of hPPRG4; not shown: purified by HA and histidine columns, so HA and His tags are implied
T1 sequence: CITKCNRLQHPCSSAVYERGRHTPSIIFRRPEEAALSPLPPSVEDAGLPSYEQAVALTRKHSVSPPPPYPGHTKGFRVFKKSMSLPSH

B1: Peroxisomal membrane protein PEX13 (other, UniProt Q92968 272-336, looked up)
chain: DDHVVARAEYDFAAVSEEEISFRAGDMLNLALKEQQPKVRGWLLASLDGQTTGLIPANYVKILGK
notes: domain: SH3 domain; Array spot; also called PEXD
B2: Abelson-related protein; Arg tyrosine kinase (other, UniProt P42684 107-167, looked up)
chain: SDPNLFVALYDFVASGDNTLSITKGEKLRVLGYNQNGEWSEVRSKNGQGWVPSNYITPVNS
notes: domain: SH3 domain; Array spot; also called Abl2
B3: Nebulette (other, UniProt O76041 954-1014, looked up)
chain: PNLRTYRAMYDYSAQDEDEVSFRDGDYIVNVQPIDDGWMYGTVQRTGRTGMLPANYIEFVN
notes: domain: SH3 domain; Array spot; also called NEBL
B4: PAK-interacting exchange factor beta (other, UniProt Q14155 184-243, looked up)
chain: NNQLVVRAKFNFQQTNEDELSFSKGDVIHVTRVEEGGWWEGTLNGRTGWFPSNYVREVKA
notes: domain: SH3 domain; Array spot; also called Y124
B5: Tyrosine-protein kinase Tec (other, UniProt P42680 179-239, looked up)
chain: NSEEIVVAMYDFQAAEGHDLRLERGQEYLILEKNDVHWWRARDKYGNEGYIPSNYVTGKKS
notes: domain: SH3 domain; Array spot
B6: Grb2-related adaptor protein, SH3 Domain #2 (other, UniProt Q13588 158-217, looked up)
chain: PGACFAQAQFDFSAQDPSQLSFRRGDIIEVLERPDPHWWRGRSCGRVGFFPRSYVQPVHL
notes: domain: SH3 Domain #2; Array spot; also called Grap-D2
B7: Lyn, Src family of non-receptor protein Tyrosine kinase (other, UniProt P07948 63-123, looked up)
chain: EQGDIVVALYPYDGIHPDDLSFKKGEKMKVLEEHGEWWKAKSLLTKKEGFIPSNYVAKLNT
notes: as for B5
B8: Bruton Tyrosine Kinase (other, UniProt Q06187 214-274, looked up)
chain: SELKKVVALYDYMPMNANDLQLRKGDEYFILEESNLPWWRARDKNGQEGYIPSNYVTEAED
notes: domain: SH3 domain; Array spot; also called BTK
B9: Osteoclast stimulating factor 1 (other, UniProt Q92882 12-71, looked up)
chain: GQVKVFRALYTFEPRTPDELYFEEGDIIYITDMSDTNWWKGTSKGRTGLIPSNYVAEQAE
notes: domain: SH3 domain; Array spot; also called OSF

The binders below were run against T1, cytosolic domain of human PRRG4 (assay: WW domain array probed with purified cytosolic hPRRG4; listed as a hit).
Description: PRRG4 has one WW-binding domain in its cytosolic domain. WW domains are involved in several cellular processes including cell cycle control and cell proliferation. In order to analyze the possible interactions of PRRG4 with different WW motif containing proteins, the cytosolic domain of human PRRG4 was purified by our group and used in TranSignal WW Domain Arrays. This array contains WW domains from 67 different human proteins and each WW domain is spotted in duplicate. […] Among these proteins Yes-Associated Protein1 (YAP 1) and Nedd4 are particularly important as they are known to play essential roles in several cellular activities including cell proliferation. FIGS. 9 and 10 are tables that show the proteins that are used on the array.
(§1) The cystosolic domain of hPPRG4 was expressed in insect cells and proteins were purified by HA and histidine columns. Interactions of cytosolic hPPRG4 with different SH3 and WW domains were tested by incubating purified hPRRG4 proteins with arrays containing SH3 and WW domains of several proteins. After incubation, PRRG4 bound to several proteins, most of which are non-receptor tyrosine kinases or scaffolding proteins. These newly identified binding partners provide valuable therapeutic targets for the isolation and characterization of therapeutic agents that impact PRRG4 mediated oncogenesis.

Binding result, binds:
LPLPPGWEMTFTATGQRYFLNHIEKITTWQDPRK (other, human, UniProt Q9GZV5 124-157, looked up, domain: WW domain; Array spot) [transcriptional co-activator with PDZ-binding motif (TAZ)]

What follows are binders tested against T1, cytosolic domain of human PRRG4 (assay: SH3 domain array probed with purified cytosolic hPRRG4; listed as a hit).
Description: as §1

Binding result, binds:
B1
B2
B3
B4
B5
B6
B7
B8
B9
